Experimental data: patent publication US20170137509A1 (AFFIRIS, published 2017)

Legend:
[1] = target: T1, biotinylated peptide ligand representing ThrOpn (SPR); test: SPR (Biacore 2000), biotinylated peptide on streptavidin chip, mAb injected at 2 ug/ml
Experimental: (§1) Binding analyses were performed on a Biacore 2000. The different biotinylated peptide ligands representing the different Opn products were immobilized on a streptavidin chip in one flow cell respectively, with a flow rate of 30 μl/min. The fourth flow cell is a reference cell without peptide. The peptides were dissolved in a DMSO solution and further diluted in HBS buffer (0.01M Hepes, 0.1M NaCl, 0.004M EDTA, 0.05% P20, pH=7.4). After immobilization, the chips in each flow cell were saturated with 1 μM D-Biotin. As a control, an unspecific serum was injected through all cells. The flow rate of the antibodies was 30 μl/min at a concentration of 2 μg/ml, volume injected 100 μl. The dissociation time was set at 500 sec. The chips were regenerated with 60 μl of 50 mM HCl. Off-rate values and KD values were calculated using the Biocore SPR software.
(§2) In order to define the binding strength of selected mAbs against their individual targets SPR analysis was performed using peptides representing the different Opn products. […] Thus in a situation where multiple washing steps are included (e.g. in the used functional cell based adhesion assay) the antibody will be washed away from its target. […] In a more physiological situation where antibody persistence is not influenced by steps depleting the antibody, mAb 4-4-2 is expected also display functional activity.

full length Opn (flOpn) = target: T2, full length Opn (flOpn) (human, UniProt P10451 17-314); test: ELISA on plates coated with recombinant human Opn, HRP anti-mouse IgG, OD 405 nm
T2 construct: Recombinant, expressed in HEK293 c18 cells as 'Strep-314 AA (full length Opn)-6xHis'; ELISA and Western blot also used PeproTech Cat#120-35 as control, and Western lanes 1-4 hold full length Opn proteins with different tag systems; also called Strep-314 AA (full length Opn)-6xHis; full length osteopontin; not shown: N-terminal OneStrep-tag
T2 sequence (P10451 other isoform, or with tags, fused parts or gaps): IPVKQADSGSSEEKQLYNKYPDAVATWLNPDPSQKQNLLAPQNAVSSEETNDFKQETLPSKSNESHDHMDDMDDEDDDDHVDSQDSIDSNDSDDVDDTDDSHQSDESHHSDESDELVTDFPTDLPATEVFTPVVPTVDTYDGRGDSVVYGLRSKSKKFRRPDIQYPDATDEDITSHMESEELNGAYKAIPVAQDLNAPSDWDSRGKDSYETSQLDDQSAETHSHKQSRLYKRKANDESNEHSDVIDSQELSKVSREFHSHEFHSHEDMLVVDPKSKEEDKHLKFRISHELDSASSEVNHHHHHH
Experimental: (§3) ELISA plates (Nunc, Cat#439454) were coated with 1 μg/ml recombinant human Opn proteins (home-made or from PeproTech, Cat#120-35 as control) in 100 mM NaHCO3 pH=9,2 and blocked with 1% BSA in 1×PBS. Bound mouse anti-human monoclonal antibodies (BioGenes, 1 μg/ml) and the mouse serum used as positive control were detected using a HRP-conjugated goat anti-mouse IgG antibody ([…], Cat#115-035-068, 0.2 μg/ml). ABTS (0.68 mM ABTS in 0.1 M citric acid, pH=4.3) and 0.1% hydrogen peroxide was used as a substrate for the horse radish peroxidase (HRP). The substrate reaction was stopped by adding 1% SDS solution to the wells. The absorbance was read at 405 nm using a microplate reader (TECAN Sunrise).

[2] = target: T3, matrix-metalloproteinase-truncated Opn (MmpOpn) (human, UniProt P10451 17-166, limits assumed); test: as above
T3 construct: Recombinant, expressed in HEK293 c18 cells; stop codon after 166 AA; also called 1-Opn-166; 6xHis-166 AA (N-terminal MMP-cleaved Opn)
T3 sequence (P10451 other isoform, or with tags, fused parts or gaps limits assumed): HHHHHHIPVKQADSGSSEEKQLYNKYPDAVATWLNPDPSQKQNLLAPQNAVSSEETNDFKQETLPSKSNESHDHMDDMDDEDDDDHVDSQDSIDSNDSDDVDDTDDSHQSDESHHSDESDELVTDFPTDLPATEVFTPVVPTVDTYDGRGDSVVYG
Experimental: as §3

[3] = target: T1, biotinylated peptide ligand …; test: SPR (Biacore 2000), biotinylated peptide on streptavidin chip, mAb injected at 2 ug/ml; one value printed for 'ThrOpn and MmpOpn'
[4] = target: T4, biotinylated peptide ligand representing MmpOpn (SPR); test: as above
[5] = target: T4, biotinylated peptide ligand …; test: SPR (Biacore 2000), biotinylated peptide on streptavidin chip, mAb injected at 2 ug/ml
Experimental: as §1, §2

| Binder | Kd [1] [nM] | koff [1] [s⁻¹] | binding result (full length Opn (flOpn)) | binding result [2] | Kd [3] [nM] | koff [3] [s⁻¹] | Kd [4] [nM] | koff [4] [s⁻¹] | Kd [5] [nM] | koff [5] [s⁻¹] |
| --- | --- | --- | --- | --- | --- | --- | --- | --- | --- | --- |
| mAb 4-4-2 (antibody, V domains shown, also called Monoclonal Ab 4-4-2) VH: QVTLKESGPGILQPSQTLSLTCSFSGFSLSTYGLGVSWIRQPSGKGLEWLAHIYWDDNKRYKSSLKSRLTISKDTSSNQVFLKITSVDTADTATYYCARGTSPGVSFPYWGQGTLVTVSA VL: DIQMTQSPASLSASVGETVTITCRASENIYSYLAWYQQKQGKSPQFLVYNAKTLAEGVPSRFSGSGSGTQFSLKINSLQPEDFGSYYCQHHYGTPLTFGAGTKLELKR | 13.9 | 0.00279 | no binding (tested: 1,00 µg/ml) | no binding (tested: 1,00 µg/ml) | – | – | – | – | – | – |
| mAb 21-5-4 (antibody, V domains shown, also called 21-5-4 mAb; Monoclonal Ab 21-5-4) VH: QVTLKESGPGMLKPSQTLSLTCSFSGFSLSTSGLGIGWIRQPSGKGLEWLAHISWDDSKYYNPSLKNRLTISKDTSRNQVFLKITNVGTADSATYFCARSGGGDSDWGQGTLVTVSA VL: ANVLTQSPAIMSASPGEKVTMTCSANSSVNSIHWYQQKSSTSPKLWIYDTSKLASGVPGRFSGSGSGDSYSLTISSMEAEDVATYYCFQGSGYPLTFGGGTKLEIKR | – | – | – | – | 0.84 | 1e-05 | 0.84 | 1e-05 | – | – |
| mAb 7-5-4 (antibody, V domains shown, also called Monoclonal Ab 7-5-4) VH: EVQLVETGGGLVQPKGALRLSCAVSGITFNTNGMNWVRQAPGRGLEWVARVRSKDYNFATYYADSVKDRFTISRDDSQSMLYLQMNNLRTEDTAMYYCVRPDYYGSSFAYWGQGTLVSVSA VL: DVLMTQTPLSLPVSLGDQASISCRSSQSIVHSNGNTYLEWYLQKPGQSPKLLIYKVSNRFFGVPDRFSGSGSGTDFTLKISRVEAEDLGVYYCFQGSHVPWTFGGGTKLEIKR | – | – | no binding (tested: 1,00 µg/ml) | – | – | – | – | – | 1.12 | 8.89e-05 |
| mAb 9-3-1 (antibody, IgG1, V domains shown, tested as a separate clone; also called mAb CMI 9-3) VH: EVQLVETGGGLVQPKGALRLSCAVSGITFNTNGMNWVRQAPGRGLEWVARVRSKDYNFATYYADSVKDRFTISRDDSQSMLYLQMNNLRTEDTAMYYCVRPDYYGSSFAYWGQGTLVSVSA VL: DVLMTQTPLSLPVSLGDQASISCRSSQSIVHSNGNTYLEWYLQKPGQSPKLLIYKVSNRFFGVPDRFSGSGSGTDFTLKISRVEAEDLGVYYCFQGSHVPWTFGGGTKLEIKR | – | – | no binding (tested: 1,00 µg/ml) | – | – | – | – | – | 0.97 | 8.79e-05 |
